“And” between values parts separate entries of the source, which are not always exact repeats. Equal entries are not always repeated.

The results in this text go back to US20190367633A1 (published 2019).

Experiment [1] deals with T1, Recombinant human PD-1-Fc (human, UniProt Q15116 25-167). Put plainly: competition.
The target in experiment [2] is human HER2 (Beijing Yiyi) (human, UniProt P04626 23-652). Put plainly: ELISA.
The target of experiment [3] is Recombinant human PD-1 (Beijing Yiqiao Shenzhou, Cat. No. 10377-H08H) (human, UniProt Q15116 25-167). The experiment in a line: ELISA.
Experiment [4] concerns the target T1, Recombinant human PD-1-Fc. The experiment in a line: competition ELISA; blocking PD-1/PD-L1.
Experiment [5] has as its target T1, Recombinant human PD-1-Fc. The experiment in a line: competition ELISA; blocking PD-1/PD-L2.

B1: anti-PD-1BJHM/anti-HER2 heterodimeric bispecific antibody (bispecific antibody)
heavy 1: not shown
light 1: DIVLTQSPATLSVTPGDSVSLSCRANQSISNNLHWYQQRSHESPRLLIRFASQSISGIPSRFSGSGSGTDFTLSINSVETEDFGMYFCQQSDNWPLTFGAGTKLEIKRTVAAPSVFIFPPSDEQLKSGTASVVCLLNNFYPREAKVQWKVDNALQSGNSQESVTEQDSKDSTYSLSSTLTLSKADYEKHKVYACEVTHQGLSSPVTKSFNRGEC
heavy 2: not shown
light 2: not shown
Consider B1, for which the IC50 in experiment [1] is 2.06 nM and 1.95 nM.

B2: anti-PD-1pem/anti-HER2 heterodimeric bispecific antibody (bispecific antibody)
heavy 1: not shown
light 1: EIVLTQSPATLSLSPGERATLSCRASKGVSTSGYSYLHWYQQKPGQAPRLLIYLASYLESGVPARFSGSGSGTDFTLTISSLEPEDFAVYYCQHSRDLPLTFGGGTKVEIKRTVAAPSVFIFPPSDEQLKSGTASVVCLLNNFYPREAKVQWKVDNALQSGNSQESVTEQDSKDSTYSLSSTLTLSKADYEKHKVYACEVTHQGLSSPVTKSFNRGEC
heavy 2: not shown
light 2: not shown
Regarding B2, in experiment [1], the IC50 was 3.68 nM and 4.54 nM.

B3: PD-1 MONOCLONAL ANTIBODYBJHM (antibody, V domains shown)
VH: EVQLQESGGGLVKPGGSLKLSCAASGFTFSSYGMSWVRQTPEKRLEWVASISGGGRYTYYPDSMKGRFTISRDNAKNNLHLQMSSLRSEDTALYYCVYEYFYTMDYWGQGTSVTVSS
VL: DIVLTQSPATLSVTPGDSVSLSCRANQSISNNLHWYQQRSHESPRLLIRFASQSISGIPSRFSGSGSGTDFTLSINSVETEDFGMYFCQQSDNWPLTFGAGTKLEIK
On to B3, for which the EC50 in experiment [2] is > 20 nM; in experiment [3], > 0.08 nM. Moreover, the IC50 is > 1.2 nM in experiment [4] and > 1.11 nM in experiment [5].

B4: PD-1 MONOCLONAL ANTIBODYpem (antibody, V domains shown)
VH: QVQLVQSGVEVKKPGASVKVSCKASGYTFTNYYMYWVRQAPGQGLEWMGGINPSNGGTNFNEKFKNRVTLTTDSSTTTAYMELKSLQFDDTAVYYCARRDYRFDMGFDYWGQGTTVTVSS
VL: EIVLTQSPATLSLSPGERATLSCRASKGVSTSGYSYLHWYQQKPGQAPRLLIYLASYLESGVPARFSGSGSGTDFTLTISSLEPEDFAVYYCQHSRDLPLTFGGGTKVEIK
Consider B4, for which, in experiment [2], the EC50 is > 20 nM.
